From EP4772535A1 (Chia Tai Tianqing Pharmaceutical Group Co., Ltd., dated 2026)

Columns and labels:
[1] = biological target: T1, ROR1 naturally expressed on human tumor cell lines (A549, Jeko-1, SW620, PA-1) (human, UniProt Q01973 30-937); experiment: FACS on PA-1 cells naturally expressing ROR1
T1 construct: whole, on cells; also called cells expressing ROR1

[2] = biological target: T1, ROR1 naturally expressed on human tumor …; experiment: cell-based or functional assay
[3] = biological target: T1, ROR1 naturally expressed on human tumor …; experiment: FACS on Jeko-1 cells naturally expressing ROR1
[4] = biological target: T2, human/cynomolgus monkey ROR1 protein (Acro Biosystems, Cat. No.: RO1-H522y) (human/cynomolgus monkey, UniProt Q01973 30-403); experiment: SPR (Biacore), antibody captured on anti-hIgG CM5 chip, ROR1 protein as analyte, method of Example 5
T2 construct: Bought SPR analyte
T2 sequence (Q01973 30-403 limits assumed): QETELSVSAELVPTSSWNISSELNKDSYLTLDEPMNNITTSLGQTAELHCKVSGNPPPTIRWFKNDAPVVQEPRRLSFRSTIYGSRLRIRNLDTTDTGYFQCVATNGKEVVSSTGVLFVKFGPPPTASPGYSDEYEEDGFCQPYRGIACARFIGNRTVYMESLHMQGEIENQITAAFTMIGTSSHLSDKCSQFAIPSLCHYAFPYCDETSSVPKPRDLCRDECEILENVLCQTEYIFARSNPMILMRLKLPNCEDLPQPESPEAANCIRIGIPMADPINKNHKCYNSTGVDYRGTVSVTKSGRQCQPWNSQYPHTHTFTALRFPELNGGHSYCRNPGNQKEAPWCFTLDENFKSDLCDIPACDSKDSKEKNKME

[5] = biological target: T3, human ROR1 on stably transfected cells (NCI-H1993-ROR1, MDA-MB-468-ROR1, NCI-H1975-ROR1, 293T-ROR1-NF-kB) (human, UniProt Q01973 30-937); experiment: cell-based or functional assay
T3 sequence (Q01973 30-937 limits assumed): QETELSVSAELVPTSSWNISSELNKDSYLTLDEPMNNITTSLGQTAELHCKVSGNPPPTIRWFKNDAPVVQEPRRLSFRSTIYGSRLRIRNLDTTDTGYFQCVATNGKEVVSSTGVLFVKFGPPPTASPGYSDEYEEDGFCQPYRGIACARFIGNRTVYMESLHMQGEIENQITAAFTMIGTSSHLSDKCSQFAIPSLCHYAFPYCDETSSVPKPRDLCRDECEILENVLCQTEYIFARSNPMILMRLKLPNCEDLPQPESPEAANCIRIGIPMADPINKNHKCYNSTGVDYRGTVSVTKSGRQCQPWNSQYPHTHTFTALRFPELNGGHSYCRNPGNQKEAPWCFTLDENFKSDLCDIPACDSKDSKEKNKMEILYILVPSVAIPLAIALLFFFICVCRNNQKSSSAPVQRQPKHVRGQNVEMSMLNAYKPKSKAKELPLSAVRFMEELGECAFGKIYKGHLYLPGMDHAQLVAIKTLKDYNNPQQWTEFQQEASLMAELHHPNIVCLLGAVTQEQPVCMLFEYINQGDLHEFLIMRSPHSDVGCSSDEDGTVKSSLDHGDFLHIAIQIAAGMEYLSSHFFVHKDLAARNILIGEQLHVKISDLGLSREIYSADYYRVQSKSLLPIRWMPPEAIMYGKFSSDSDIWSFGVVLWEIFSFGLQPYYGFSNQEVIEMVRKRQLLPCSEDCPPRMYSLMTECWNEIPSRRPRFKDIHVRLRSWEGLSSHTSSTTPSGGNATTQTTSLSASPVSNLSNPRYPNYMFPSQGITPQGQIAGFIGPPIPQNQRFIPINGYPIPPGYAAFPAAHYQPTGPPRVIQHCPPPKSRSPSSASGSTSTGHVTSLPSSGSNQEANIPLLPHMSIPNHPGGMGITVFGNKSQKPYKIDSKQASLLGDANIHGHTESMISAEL

[6] = biological target: T3, human ROR1 on stably transfected cells …; experiment: cell-based or functional assay; remark: listed apart in the source
[7] = biological target: T1, ROR1 naturally expressed on human tumor …; experiment: FACS on SW620 cells naturally expressing ROR1
[8] = biological target: T1, ROR1 naturally expressed on human tumor …; experiment: FACS on SW620 cells naturally expressing ROR1; remark: listed apart in the source
[9] = biological target: T1, ROR1 naturally expressed on human tumor …; experiment: FACS on Jeko-1 cells naturally expressing ROR1; remark: listed apart in the source
[10] = biological target: T1, ROR1 naturally expressed on human tumor …; experiment: FACS on PA-1 cells naturally expressing ROR1; remark: listed apart in the source
[11] = biological target: T1, ROR1 naturally expressed on human tumor …; experiment: FACS on A549 cells naturally expressing ROR1
[12] = biological target: T1, ROR1 naturally expressed on human tumor …; experiment: FACS on Jeko-1 cells naturally expressing ROR1; remark: listed apart in the source
[13] = biological target: T1, ROR1 naturally expressed on human tumor …; experiment: FACS on SW620 cells naturally expressing ROR1; remark: listed apart in the source
[14] = biological target: T1, ROR1 naturally expressed on human tumor …; experiment: FACS on PA-1 cells naturally expressing ROR1; remark: listed apart in the source
[15] = biological target: T1, ROR1 naturally expressed on human tumor …; experiment: FACS on SW620 cells naturally expressing ROR1; remark: listed apart in the source
[16] = biological target: T2, human/cynomolgus monkey ROR1 protein …; experiment: SPR (Biacore), antibody captured on anti-hIgG CM5 chip, ROR1 protein as analyte, 1:1 model
[17] = biological target: T1, ROR1 naturally expressed on human tumor …; experiment: FACS on Jeko-1 cells naturally expressing ROR1; remark: listed apart in the source

T1 sequence (Q01973 30-937): as the sequence (Q01973 30-937 limits assumed) above

EC50 [1] | Top (MFI) [1] | ADCC reporter gene assay EC50 (nM), PA-1 target cells, recombinant Jurkat effector cells [2] | EC50 [3] | Top (MFI) [3] | Kd [4] | koff [4] | kon [4] | Internalization EC50 (nM), NCI-H1975-ROR1 cells, pH-dependent endocytosis reagent, FACS [5] | Internalization EC50 (nM), MDA-MB-468-ROR1 cells, pH-dependent endocytosis reagent, FACS [6] | Internalization EC50 (nM), NCI-H1993-ROR1 cells, pH-dependent endocytosis reagent, FACS [6] | EC50 [7] | Top (MFI) [7] | EC50 [10] | Top (MFI) [10] | EC50 [12] | Top (MFI) [12] | EC50 [13] | Top (MFI) [13] | EC50 [14] | Binder | other results
0.053 nM | 227000 MFI | 0.04 nM | 0.01 nM | 88000 MFI | 0.289 nM | 0.000792 s⁻¹ | 2.74e+06 M⁻¹ s⁻¹ | 12.4 nM | 1.44 nM | 1.24 nM | 0.009 nM | 29500 MFI |  |  |  |  |  |  |  | hz137G11D10-2.1 (antibody, human IgG1, kappa, V domains shown, Humanized, human IgG1/kappa) VH: QVQLQESGPGLVKPSQTLSLTCTVSGYSITSDYAWNWIRQHPGKGLEWIGYITYSASTSYNPSLKSRVTISRDTSKNQFSLKLSSVTAADTAVYYCARGAGTYYFDYWGQGTLVTVSS VL: DIQMTQSPSSLSASVGDRVTITCITSTDIDEDMNWYQQKPGKAPKLLIYEDNSLRPGVPSRFSGSGYGTDFTLTISSLQPEDFATYYCLQTNNLPLTFGQGTKVEIKR | 
0.127 nM | 232000 MFI | 0.27 nM | 0.019 nM | 83200 MFI | 1.17 nM | 0.0018 s⁻¹ | 1.54e+06 M⁻¹ s⁻¹ | 17.7 nM | 2.15 nM | 2.06 nM | 0.025 nM | 26500 MFI | 0.173 nM | 235000 MFI | 0.021 nM | 91700 MFI | 0.025 nM | 26500 MFI | 0.127 nM | UC-961 (antibody, V domains shown) VH: QVQLQESGPGLVKPSQTLSLTCTVSGYAFTAYNIHWVRQAPGQGLEWMGSFDPYDGGSSYNQKFKDRLTISKDTSKNQVVLTMTNMDPVDTATYYCARGWYYFDYWGHGTLVTVSS VL: DIVMTQTPLSLPVTPGEPASISCRASKSISKYLAWYQQKPGQAPRLLIYSGSTLQSGIPPRFSGSGYGTDFTLTINNIESEDAAYYFCQQHDESPYTFGEGTKVEIK | EC50 [8]: 0.024 nM; Top (MFI) [8]: 23900 MFI; EC50 [9]: 0.019 nM; Top (MFI) [9]: 66100 MFI; EC50 [11]: 0.035 nM; Top (MFI) [11]: 75700 MFI; Top (MFI) [14]: 232000 MFI; EC50 [15]: 0.025 nM; Top (MFI) [15]: 26500 MFI; Kd [16]: 20.6 nM; koff [16]: 0.0273 s⁻¹; kon [16]: 1.33e+06 M⁻¹ s⁻¹; EC50 [17]: 0.019 nM; Top (MFI) [17]: 83200 MFI
 |  | 0.06 nM |  |  | 0.197 nM | 0.000354 s⁻¹ | 1.79e+06 M⁻¹ s⁻¹ | 5.19 nM | 0.92 nM | 1.18 nM |  |  | 0.087 nM | 244000 MFI | 0.012 nM | 89000 MFI |  |  |  | hz29H5D8-3.2 (antibody, human IgG1, kappa, V domains shown, Humanized, human IgG1/kappa) VH: QVQLVQSGAEVKKPGSSVKVSCKASGYTFTNYGISWVRQAPGQGLEWMGEIYPRSVNTYYSAKFKGRVTITADKSTSTAYMELSSLRSEDTAVYYCARHYYGSSLDYWGQGTLVTVSS VL: DIQMTQSPSSLSASVGDRVTITCITSSDIEDDMNWYQQKPGKAPKLLISEGNSLRPGVPSRFSSSGYGTDFTFTISSLQPEDIATYYCLQSDNIFTFGQGTKVEIKR | EC50 [15]: 0.01 nM; Top (MFI) [15]: 30700 MFI
 |  | 0.13 nM |  |  | 0.527 nM | 0.00051 s⁻¹ | 968000 M⁻¹ s⁻¹ | 14.9 nM | 1.39 nM | 1.16 nM |  |  |  |  |  |  | 0.022 nM | 30300 MFI | 0.166 nM | hz135A2B10-1.1 (antibody, human IgG1, kappa, V domains shown, Humanized, human IgG1/kappa) VH: QVQLVESGGGLVQPGGSLRLSCAASGFAFSTYGMAWVRQAPGKGLEWVASIHKGGFSTYYPDNVKGRFTISRDNAKNSLYLQMNSLRAEDTAVYYCARHDWDGAMDYWGQGTLVTVSS VL: DIQMTQSPSSLSASVGDRVTITCKASQDINSYLNWYQQKPGKAPKTLIYRANRLVDGVPSRFSGSGSGQDYTLTISSLQPEDFATYYCLQFDEFPYTFGQGTKVEIKR | Top (MFI) [14]: 250000 MFI; EC50 [17]: 0.015 nM; Top (MFI) [17]: 88300 MFI
